Data on one molecule can be found in paper PMC4540666.

[ ]: non-standard residue; d: D form. pY = N[C@@H](Cc1ccc(OP(=O)(O)O)cc1)C(=O)O

Assay [1] has as its target PLCγ1 SH2C domain (C-terminal SH2 domain of PLCγ1) (rat) (UniProt P10686). Description: other fluorescence titration.
The target in a further assay is PLCγ1 SH2C-linker (rat) (UniProt P10686). Description: other fluorescence titration.

B1: SLP-76 pY173 peptide (Ac-NSMpY173IDRPPTGK-NH2) (peptide)
peptide: Ac-NSM[pY]IDRPPTGK-NH2
SMILES: CC[C@H](C)[C@H](NC(=O)[C@H](Cc1ccc(OP(=O)(O)O)cc1)NC(=O)[C@H](CCSC)NC(=O)[C@H](CO)NC(=O)[C@H](CC(N)=O)NC(C)=O)C(=O)N[C@@H](CC(=O)O)C(=O)N[C@@H](CCCNC(=N)N)C(=O)N1CCC[C@H]1C(=O)N1CCC[C@H]1C(=O)N[C@H](C(=O)NCC(=O)N[C@@H](CCCCN)C(N)=O)[C@@H](C)O
As for B1, the Kd was 1.6 µM in assay [1] and 2.9 µM with PLCγ1 SH2C-linker (rat).
